Measured values taken from patent US5498695A, “Paranitroaniline peptides” (Pfizer Inc., priority 1994, dated 1996).

Tests used:
Assay in all cases: Spectrophotometric hydrolysis of pNA substrates by immobilized ICE (release of pNA at 405 nM)
Format in all cases: biochemical, Human
Conditions in all cases: other: pNA substrate 0.01 to 1.5 mM, 25° C., pH 7
[1] = substrate: CC(=O)N[C@@H](Cc1ccc(O)cc1)C(=O)N[C@H](C(=O)N[C@@H](C)C(=O)N[C@@H](CC(=O)O)C(=O)Nc1ccc([N+](=O)[O-])cc1)C(C)C
Description: (§1) Other procedures for purification and assaying ICE are disclosed in Black et al., FEBS Letters, 247, 386-390 (1989), and Thornberry et al., Nature, 356, 768-774 (1992). Cell Culture And Lysates.
(§2) Human monocyte cell line, THP-1 (ATCC-TIB 202) was grown in RPMI media 1640 (Gibco BRL Gaithersburg, Md. 20877) with 10% fetal bovine serum, harvested by centrifugation, washed twice in Dulbecco's PBS […] without Ca^++, and resuspended in 10 mM Tris-HCl pH 8 buffer containing 5 mM DTT (dithiothreitol), 1 mM EDTA (ethylene diamine tetraacetic acid), 1 mM PMSF (phenylmethyl sulfonylfluoride), 1 μg/ml pepstatin, and 1 μg/ml leupeptin at 1-3×10^8 cells per ml. Cells were frozen at -70° C. until use and then lysed by thawing. Lysates were cleared by centrifugation at 20,000× g for 1 hour followed by 120,000×g for 1 hour.
(§3) ICE activity was purified from THP-1 cell lysates by three chromatographic steps: (A) Thp-1 cell lysate (1.5L) was desalted by G25 column chromatography (Pharmacia LKB Biotechnology) (B) The protein fraction was then subjected to ion-exchange chromatography on Q-Sepharose Fast Flow (Pharmacia LKB Biotechnology) in buffer A (20 mM Tris pH 7.8 containing 5 mM EDTA, 1 mM PMSF, 1 μg/ml pepstatin, and 1 μg/ml leupeptin). ICE activity was eluted with a gradient of NaCl in buffer A. (C) The active fractions from B were desalted, concentrated and subjected to MonoQ (trademark) (Pharmacia LKB Biotechnology) column chromatography. ICE activity was then eluted in a NaCl gradient. Active ICE fractions from C were pooled and used to bind immunoaffinity beads containing covalently linked antibodies raised against the first […] N-terminal residues of ICE (NH2 -Asp-Pro-Ala-Met-Pro-Thr-Ser-Ser-Val-Lys-Leu-Cys(SEQ ID NO:2)-CONH2).
(§4) Immobilization of ICE to immunoaffinity beads was done following standard protocols. Briefly, IgG fractions were covalently linked to protein A beads as described by the manufacturers (Antibody Orientation Kit Protein A Agarose supplied by Affinica (trademark) (Product manufactured by Schleicher and Schuell)). Protein A beads were pelleted by centrifugation and washed with 5 times their volume with Affinica (trademark) supplied "binding buffer". IgG, appropriately diluted in "binding buffer," was then bound to the beads. The beads were then washed and the bound IgG was covalently linked with dimethyl suberimidate. After the reaction was stopped with the "quenching buffer" supplied by Affinica (trademark), the immunoaffinity beads were washed and stored in PBS buffer containing 0.02% NAN3. […]
(§5) The enzymatic reaction was monitored spectrophotometrically at […]. The increase in absorbance at this wave length resulted from the release of pNA chromophore after hydrolysis by ICE of the peptidic-pNA substrate. […]

[2] = substrate: CC(=O)N[C@H](C(=O)N[C@@H](C)C(=O)N[C@@H](CC(=O)O)C(=O)Nc1ccc([N+](=O)[O-])cc1)C(C)C
Description: as §1, §2, §3, §4, §5

[3] = substrate: CC(C)[C@H](NC(=O)OC(C)(C)C)C(=O)N[C@@H](C)C(=O)N[C@@H](CC(=O)O)C(=O)Nc1ccc([N+](=O)[O-])cc1
Description: as §1, §2, §3, §4, §5

[4] = substrate: CC(C)[C@H](NC(=O)OCc1ccccc1)C(=O)N[C@@H](C)C(=O)N[C@@H](CC(=O)O)C(=O)Nc1ccc([N+](=O)[O-])cc1
Description: as §1, §2, §3, §4, §5

B1: interleukin 1β converting enzyme (ICE) (Homo sapiens) (protein)
chain 1: NPAMPTSSGSEGNVKLCSLEEAQRIWKQKSAEIYPIMDKSSRTRLALIICNEEFDSIPRRTGAEVDITGMTMLLQNLGYSVDVKKNLTASDMTTELEAFAHRPEHKTSDSTFLVFMSHGIREGICGKKHSEQVPDILQLNAIFNMLNTKNCPSLKDKPKVIIIQACRGDSPGVVWFKD
chain 2: AIKKAHIEKDFIAFCSSTPDNVSWRHPTMGSVFIGRLIEHMQEYACSCDVEEIFRKVRFSFEQPDGRAQMPTTERVTLTRCFYLFPGH
notes: ICE activity was purified from THP-1 cell lysates by three chromatographic steps; endogenous in cells; host or cells: THP-1 (ATCC-TIB 202) human monocyte cell line; Lysate was purified over G25, Q-Sepharose and MonoQ, then captured on protein A agarose beads carrying anti-ICE antibody
Km [1]: 43.8 µM | Km [2]: 447 µM | Km [3]: 443 µM | Km [4]: 97.9 µM
